Measurements taken from patent US20120172293A1 (Takeda / Millennium, published 2012).
Non-standard residues stand in square brackets, D forms with d. No end group written: not given here. Phe(4-NH2) = Nc1ccc(C[C@H](N)C(=O)O)cc1; 1Nal = N[C@@H](Cc1cccc2ccccc12)C(=O)O; 2Nal = N[C@@H](Cc1ccc2ccccc2c1)C(=O)O; hArg = N=C(N)NCCCC[C@H](N)C(=O)O; 4Pal = N[C@@H](Cc1ccncc1)C(=O)O; Cha = N[C@@H](CC1CCCCC1)C(=O)O; Cit = NC(=O)NCCC[C@H](N)C(=O)O; 4Amb = NCc1ccc(C(=O)O)cc1; hSer = N[C@@H](CCO)C(=O)O; Ac3c = NC1(C(=O)O)CC1; Aib = CC(C)(N)C(=O)O

T1: human Y2 receptor (human, UniProt P49146 1-381)
T1 construct: whole, on cells; used as membrane fraction of hY2R/CHO cells; also called human NPY2R; hY2R
T1 sequence (looked up): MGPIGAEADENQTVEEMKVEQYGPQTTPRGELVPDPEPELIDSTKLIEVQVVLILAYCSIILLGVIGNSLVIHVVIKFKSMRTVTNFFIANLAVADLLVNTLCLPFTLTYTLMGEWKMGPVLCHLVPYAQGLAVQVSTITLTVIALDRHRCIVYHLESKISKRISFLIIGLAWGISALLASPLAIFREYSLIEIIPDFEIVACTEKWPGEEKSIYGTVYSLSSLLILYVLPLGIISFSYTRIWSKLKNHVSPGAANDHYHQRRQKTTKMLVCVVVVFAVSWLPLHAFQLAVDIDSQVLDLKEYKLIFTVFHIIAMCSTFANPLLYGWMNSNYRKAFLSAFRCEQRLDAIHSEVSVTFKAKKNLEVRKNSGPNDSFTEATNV

B1: 4-Aminomethylbenzoyl-[Ala26, Ile28,31, Nal(1)36]-PYY(25-36) (peptide)
peptide: [4Amb]RAYINLITRQR[1Nal]-NH2
modifications: N-terminus assumed
SMILES: CC[C@H](C)[C@H](NC(=O)[C@H](Cc1ccc(O)cc1)NC(=O)[C@H](C)NC(=O)[C@H](CCCNC(=N)N)NC(=O)c1ccc(CN)cc1)C(=O)N[C@@H](CC(N)=O)C(=O)N[C@@H](CC(C)C)C(=O)N[C@H](C(=O)N[C@H](C(=O)N[C@@H](CCCNC(=N)N)C(=O)N[C@@H](CCC(N)=O)C(=O)N[C@@H](CCCNC(=N)N)C(=O)N[C@@H](Cc1cccc2ccccc12)C(N)=O)[C@@H](C)O)[C@@H](C)CC
notes: also called compound No. 13
B2: Ac-[D-Pro24, Cha27,36, Hse28, Aib31]-PYY(23-36) (peptide)
peptide: Ac-S[dP]RH[Cha][hSer]NL[Aib]TRQR[Cha]-NH2
SMILES: CC(=O)N[C@@H](CO)C(=O)N1CCC[C@@H]1C(=O)N[C@@H](CCCNC(=N)N)C(=O)N[C@@H](Cc1c[nH]cn1)C(=O)N[C@@H](CC1CCCCC1)C(=O)N[C@@H](CCO)C(=O)N[C@@H](CC(N)=O)C(=O)N[C@@H](CC(C)C)C(=O)NC(C)(C)C(=O)N[C@H](C(=O)N[C@@H](CCCNC(=N)N)C(=O)N[C@@H](CCC(N)=O)C(=O)N[C@@H](CCCNC(=N)N)C(=O)N[C@@H](CC1CCCCC1)C(N)=O)[C@@H](C)O
notes: also called compound No. 144
B3: Ac-[D-Tyr21, D-Pro24, Cha27,28,36, Aib31]-PYY(21-36) (peptide)
peptide: Ac-[dY]AS[dP]RH[Cha][Cha]NL[Aib]TRQR[Cha]-NH2
SMILES: CC(=O)N[C@H](Cc1ccc(O)cc1)C(=O)N[C@@H](C)C(=O)N[C@@H](CO)C(=O)N1CCC[C@@H]1C(=O)N[C@@H](CCCNC(=N)N)C(=O)N[C@@H](Cc1c[nH]cn1)C(=O)N[C@@H](CC1CCCCC1)C(=O)N[C@@H](CC1CCCCC1)C(=O)N[C@@H](CC(N)=O)C(=O)N[C@@H](CC(C)C)C(=O)NC(C)(C)C(=O)N[C@H](C(=O)N[C@@H](CCCNC(=N)N)C(=O)N[C@@H](CCC(N)=O)C(=O)N[C@@H](CCCNC(=N)N)C(=O)N[C@@H](CC1CCCCC1)C(N)=O)[C@@H](C)O
notes: also called compound No. 121
B4: Ac-[D-Pro24, Cha27,36, Acpc28, Aib31]-PYY(23-36) (peptide)
peptide: Ac-S[dP]RH[Cha][Ac3c]NL[Aib]TRQR[Cha]-NH2
SMILES: CC(=O)N[C@@H](CO)C(=O)N1CCC[C@@H]1C(=O)N[C@@H](CCCNC(=N)N)C(=O)N[C@@H](Cc1c[nH]cn1)C(=O)N[C@@H](CC1CCCCC1)C(=O)NC1(C(=O)N[C@@H](CC(N)=O)C(=O)N[C@@H](CC(C)C)C(=O)NC(C)(C)C(=O)N[C@H](C(=O)N[C@@H](CCCNC(=N)N)C(=O)N[C@@H](CCC(N)=O)C(=O)N[C@@H](CCCNC(=N)N)C(=O)N[C@@H](CC2CCCCC2)C(N)=O)[C@@H](C)O)CC1
notes: also called compound No. 145
B5: Ac-[D-Pro24, Cit27, Cha28,36, Aib31]-PYY(23-36) (peptide)
peptide: Ac-S[dP]RH[Cit][Cha]NL[Aib]TRQR[Cha]-NH2
SMILES: CC(=O)N[C@@H](CO)C(=O)N1CCC[C@@H]1C(=O)N[C@@H](CCCNC(=N)N)C(=O)N[C@@H](Cc1c[nH]cn1)C(=O)N[C@@H](CCCNC(N)=O)C(=O)N[C@@H](CC1CCCCC1)C(=O)N[C@@H](CC(N)=O)C(=O)N[C@@H](CC(C)C)C(=O)NC(C)(C)C(=O)N[C@H](C(=O)N[C@@H](CCCNC(=N)N)C(=O)N[C@@H](CCC(N)=O)C(=O)N[C@@H](CCCNC(=N)N)C(=O)N[C@@H](CC1CCCCC1)C(N)=O)[C@@H](C)O
notes: also called compound No. 146
B6: 4-Aminomethylbenzoyl-[Ala26, Ile28,31, Phe(4NH2)36]-PYY(25-36) (peptide)
peptide: [4Amb]RAYINLITRQR[Phe(4-NH2)]-NH2
modifications: N-terminus assumed
SMILES: CC[C@H](C)[C@H](NC(=O)[C@H](Cc1ccc(O)cc1)NC(=O)[C@H](C)NC(=O)[C@H](CCCNC(=N)N)NC(=O)c1ccc(CN)cc1)C(=O)N[C@@H](CC(N)=O)C(=O)N[C@@H](CC(C)C)C(=O)N[C@H](C(=O)N[C@H](C(=O)N[C@@H](CCCNC(=N)N)C(=O)N[C@@H](CCC(N)=O)C(=O)N[C@@H](CCCNC(=N)N)C(=O)N[C@@H](Cc1ccc(N)cc1)C(N)=O)[C@@H](C)O)[C@@H](C)CC
notes: also called compound No. 12
B7: Ac-[Gly23-ψ[(E)-CH═CH]-Leu24, Cha27,28,36, Aib31]-PYY(23-36) (peptide)
peptide: Ac-GLRH[Cha][Cha]NL[Aib]TRQR[Cha]-NH2
modifications: also: Gly1-Leu2 amide bond replaced by (E)-CH=CH alkene
notes: -CONH- bond between Gly23 and Leu24 is substituted by (E) type alkene; also called compound No. 122
B8: 4-Aminomethylbenzoyl-[Ala26, Ile28,31, Nal(2)36]-PYY(25-36) (peptide)
peptide: [4Amb]RAYINLITRQR[2Nal]-NH2
modifications: N-terminus assumed
SMILES: CC[C@H](C)[C@H](NC(=O)[C@H](Cc1ccc(O)cc1)NC(=O)[C@H](C)NC(=O)[C@H](CCCNC(=N)N)NC(=O)c1ccc(CN)cc1)C(=O)N[C@@H](CC(N)=O)C(=O)N[C@@H](CC(C)C)C(=O)N[C@H](C(=O)N[C@H](C(=O)N[C@@H](CCCNC(=N)N)C(=O)N[C@@H](CCC(N)=O)C(=O)N[C@@H](CCCNC(=N)N)C(=O)N[C@@H](Cc1ccc2ccccc2c1)C(N)=O)[C@@H](C)O)[C@@H](C)CC
notes: also called compound No. 14
B9: Ac-[D-Pro24, Cha27,28,36, Acpc31]-PYY(23-36) (peptide)
peptide: Ac-S[dP]RH[Cha][Cha]NL[Ac3c]TRQR[Cha]-NH2
SMILES: CC(=O)N[C@@H](CO)C(=O)N1CCC[C@@H]1C(=O)N[C@@H](CCCNC(=N)N)C(=O)N[C@@H](Cc1c[nH]cn1)C(=O)N[C@@H](CC1CCCCC1)C(=O)N[C@@H](CC1CCCCC1)C(=O)N[C@@H](CC(N)=O)C(=O)N[C@@H](CC(C)C)C(=O)NC1(C(=O)N[C@H](C(=O)N[C@@H](CCCNC(=N)N)C(=O)N[C@@H](CCC(N)=O)C(=O)N[C@@H](CCCNC(=N)N)C(=O)N[C@@H](CC2CCCCC2)C(N)=O)[C@@H](C)O)CC1
notes: also called compound No. 131
B10: 4-Aminomethylbenzoyl-[Ala26, Ile28,31, Har33]-PYY(25-36) (peptide)
peptide: [4Amb]RAYINLIT[hArg]QRY-NH2
modifications: N-terminus assumed
SMILES: CC[C@H](C)[C@H](NC(=O)[C@H](Cc1ccc(O)cc1)NC(=O)[C@H](C)NC(=O)[C@H](CCCNC(=N)N)NC(=O)c1ccc(CN)cc1)C(=O)N[C@@H](CC(N)=O)C(=O)N[C@@H](CC(C)C)C(=O)N[C@H](C(=O)N[C@H](C(=O)N[C@@H](CCCCNC(=N)N)C(=O)N[C@@H](CCC(N)=O)C(=O)N[C@@H](CCCNC(=N)N)C(=O)N[C@@H](Cc1ccc(O)cc1)C(N)=O)[C@@H](C)O)[C@@H](C)CC
notes: also called compound No. 11
B11: Ac-[D-Pro24, Cha27,28, Aib31]-PYY(23-36) (peptide)
peptide: Ac-S[dP]RH[Cha][Cha]NL[Aib]TRQRY-NH2
SMILES: CC(=O)N[C@@H](CO)C(=O)N1CCC[C@@H]1C(=O)N[C@@H](CCCNC(=N)N)C(=O)N[C@@H](Cc1c[nH]cn1)C(=O)N[C@@H](CC1CCCCC1)C(=O)N[C@@H](CC1CCCCC1)C(=O)N[C@@H](CC(N)=O)C(=O)N[C@@H](CC(C)C)C(=O)NC(C)(C)C(=O)N[C@H](C(=O)N[C@@H](CCCNC(=N)N)C(=O)N[C@@H](CCC(N)=O)C(=O)N[C@@H](CCCNC(=N)N)C(=O)N[C@@H](Cc1ccc(O)cc1)C(N)=O)[C@@H](C)O
notes: also called compound No. 142
B12: Ac-[D-Pro24, Cha27,28, Aib31, Phe36]-PYY(23-36) (peptide)
peptide: Ac-S[dP]RH[Cha][Cha]NL[Aib]TRQRF-NH2
SMILES: CC(=O)N[C@@H](CO)C(=O)N1CCC[C@@H]1C(=O)N[C@@H](CCCNC(=N)N)C(=O)N[C@@H](Cc1c[nH]cn1)C(=O)N[C@@H](CC1CCCCC1)C(=O)N[C@@H](CC1CCCCC1)C(=O)N[C@@H](CC(N)=O)C(=O)N[C@@H](CC(C)C)C(=O)NC(C)(C)C(=O)N[C@H](C(=O)N[C@@H](CCCNC(=N)N)C(=O)N[C@@H](CCC(N)=O)C(=O)N[C@@H](CCCNC(=N)N)C(=O)N[C@@H](Cc1ccccc1)C(N)=O)[C@@H](C)O
notes: also called compound No. 143
B13: Ac-[Glu23, D-Pro24, Pya(4)26, Cha27,36, Tyr28, Lys30, Aib31]-PYY(23-36) (peptide)
peptide: Ac-E[dP]R[4Pal][Cha]YNK[Aib]TRQR[Cha]-NH2
SMILES: CC(=O)N[C@@H](CCC(=O)O)C(=O)N1CCC[C@@H]1C(=O)N[C@@H](CCCNC(=N)N)C(=O)N[C@@H](Cc1ccncc1)C(=O)N[C@@H](CC1CCCCC1)C(=O)N[C@@H](Cc1ccc(O)cc1)C(=O)N[C@@H](CC(N)=O)C(=O)N[C@@H](CCCCN)C(=O)NC(C)(C)C(=O)N[C@H](C(=O)N[C@@H](CCCNC(=N)N)C(=O)N[C@@H](CCC(N)=O)C(=O)N[C@@H](CCCNC(=N)N)C(=O)N[C@@H](CC1CCCCC1)C(N)=O)[C@@H](C)O
notes: also called compound No. 139

Each binder was assayed against T1, human Y2 receptor (assay: RBA: [125I]-PYY displacement, hY2R/CHO membranes).
Experimental: After incubation at room temperature for 60 minutes, the mixture was filtered through the cell harvester FilterMate (PerkinElmer) using UniFilter-96 GF/C treated with polyethylenimine (PEI) solution (20 mM Tris, 0.3% PEI, pH 7.4), and the filter was washed 3 times with a filtering buffer (50 mM Tris, 5 mM MgCl₂, 150 mM NaCl, 0.03% NaN₃, 0.05% CHAPS, pH 7.4). Thereafter, UniFilter-96 GF/C was dried in a mechanical drier for 1 hour, 15 μl of the liquid scintillator MicroScint O (PerkinElmer) was added to each well, and a measurement was taken using TopCount (PerkinElmer). The data obtained were analyzed using Prism to calculate the IC₅₀ value.

IC50 Ratio (vs PYY(3-36))	Binder
7.6 ratio	B1
22 ratio	B2
1.2 ratio	B3
160 ratio	B4
36 ratio	B5
12 ratio	B6
17 ratio	B7
14 ratio	B8
7 ratio	B9
260 ratio	B10
3.2 ratio	B11
2.9 ratio	B12
2.2 ratio	B13

The binders below were run against T1, human Y2 receptor (assay: cell-based or functional assay).

GBA EC50 Ratio (vs PYY(3-36)), [35S]GTPγS	Binder
3.6 ratio	B1
4.5 ratio	B2
1.3 ratio	B3
17 ratio	B4
5.6 ratio	B5
5 ratio	B6
14 ratio	B7
6.9 ratio	B8
3.6 ratio	B9
63 ratio	B10
1.1 ratio	B11
0.85 ratio	B12
1.2 ratio	B13
